Laboratory results as given in patent US11021531 (CENTIVAX, dated 2021).
Changes are numbered by the printed parent chain.

B1: COVID19_P04_D08 (scFv, V domains shown)
VH: EVQLVESGGGLVQPGGSLRLSCAASGFTFTNYAMTWVRQAPGKGLEWVSTMSNIGGDTYYADSVKGRFTISRDNSKNTLYLQMNSLRAEDTAVYYCARDRRVYLDYWGQGTLVTVSS
VL: DIQMTQSPSSLSASVGDRVTITCRASQSISSYLNWYQQKPGKAPKLLIYAASSLQSGVPSRFSGSGSGTEFTLTISSLQSEDFAVYYCQQYGSSPLTFGGGTKVEIKR
B2: COVID19_P04_E10 (scFv, V domains shown)
VH: EVQLVESGGGLVQPGGSLRLSCAASGFSFSSYGMSWVRQAPGKGLEWVSAMNRDGSYIYYADSVKGRFTISRDNSKNTLYLQMNSLRAEDTAVYYCARDRSYYVGYWGQGTLVTVSS
VL: EIVMTQSPATLSVSPGERATLSCRASQSVRSNLAWYQQKPGQAPRLLIYGASTRATGIPARFSGSGSGTEFTLTISSLQSEDFAVYYCQQRNNWPPTFGGGTKVEIKR
B3: COVID19_P04_B09 (scFv, V domains shown)
VH: EVQLVESGGGLVQPGGSLRLSCAASGFTFSNSDMNWVRQAPGKGLEWVSAISGTGDTTEYADSVKGRFTISRDNSKNTLYLQMNSLRAEDTAVYYCARDRSLMLDYWGQGTLVTVSS
VL: B2 VL
B4: COVID19_P04_G03 (scFv, V domains shown)
VH: EVQLVESGGGLVQPGGSLRLSCAASGFTVSSNYMNWVRQAPGKGLEWVSVVYPGGSTYYADSVKGRFTISRDNSKNTLYLQMNSLRAEDTAVYYCARDRSYYLDYWGQGTLVTVSS
VL: not shown
B5: COVID19_P04_G05 (scFv, V domains shown)
VH: B4 VH with F27L, T28S, S30T, N35S, V51I, Y58F
VL: not shown
B6: COVID19_P04_B10 (scFv, V domains shown)
VH: EVQLVESGGGLVQPGGSLRLSCAASGFRFSDAAIHWVRQAPGKGLEWVSAISGSGGSTYYADSVKGRFTISRDNSKNTLYLQMNSLRAEDTAVYYCARDRSYGIDYWGQGTLVTVSS
VL: not shown
B7: COVID19_P04_B03 (scFv, V domains shown)
VH: B6 VH with R28T, D31N, A32H, A33Y, I34M, H35S, G103Y, I104L
VL: B2 VL with V29I, R30G, S31T, N32Y, A34S, R91S, N92L, N93S, W94L, P96V
B8: COVID19_R01_D02 (scFv, V domains shown)
VH: EVQLVESGGGLVQPGGSLRLSCAASGFTFDDYAMHWVRQAPGKGLEWVAIIYEGGSPHYADSVKGRFTISRDNSKNTLYLQMNSLRAEDTAVYYCARDRSGYLDYWGQGTLVTVSS
VL: B2 VL with R30S, S31N, G50D, R91Y
B9: COVID19_R01_C08 (scFv, V domains shown)
VH: B2 VH
VL: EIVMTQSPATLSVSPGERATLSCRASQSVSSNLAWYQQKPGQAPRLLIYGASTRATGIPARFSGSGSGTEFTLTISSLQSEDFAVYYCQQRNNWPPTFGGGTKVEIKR
notes: also called COVID19_R01_CO8
B10: COVID19_R01_B01 (scFv, V domains shown)
VH: EVQLVESGGGLVQPGGSLRLSCAASGFTFASHAMSWVRQAPGKGLEWVSGISSDGSITTYADSVKGRFTISRDNSKNTLYLQMNSLRAEDTAVYYCARDRGWYLDYWGQGTLVTVSS
VL: not shown
B11: COVID19_R01_B10 (scFv, V domains shown)
VH: B4 VH with N35S, V51I, Y58F
VL: EIVMTQSPATLSVSPGERATLSCRASQSVSSSYLAWYQQKPGQAPRLLIYGASTRATGIPARFSGSGSGTEFTLTISSLQSEDFAVYYCQQASSTPLTFGGGTKVEIKR
B12: COVID19_R01_A04 (scFv, V domains shown)
VH: EVQLVESGGGLVQPGGSLRLSCAASGFTFSDHYMSWVRQAPGKGLEWVSAISTSGDSTFYADSVKGRFTISRDNSKNTLYLQMNNLRAEDTAVYYCARDRSYYLDYWGQGTLVTVSS
VL: EIVMTQSPATLSVSPGERATLSCRASQSVRSNLAWYQQKPGQAPRLLIYGASTRATGIPARFSGSGSGTEFTLTISSLQSEDFAVYYCQQFGTSPPGLSFGGGTKVEIKR

biological target: SARS-CoV-1 Receptor Binding Domain (RBD) protein (SARS-CoV-1, UniProt P59594 306-527); experiment: SPR (Carterra LSA), scFv captured via anti-V5, RBD as analyte

| Binder | binding result |
| --- | --- |
| B1 | no binding (tested: 300 nM (highest analyte concentration)) |
| B2 | no binding (tested: 300 nM (highest analyte concentration)) |
| B3 | no binding (tested: 300 nM (highest analyte concentration)) |
| B4 | no binding (tested: 300 nM (highest analyte concentration)) |
| B5 | no binding (tested: 300 nM (highest analyte concentration)) |
| B6 | no binding (tested: 300 nM (highest analyte concentration)) |
| B7 | no binding (tested: 300 nM (highest analyte concentration)) |

biological target: MERS Receptor Binding Domain (RBD) protein (MERS coronavirus, UniProt K9N5Q8 367-606); experiment: as above

| Binder | binding result |
| --- | --- |
| B1 | no binding (tested: 300 nM (highest analyte concentration)) |
| B2 | no binding (tested: 300 nM (highest analyte concentration)) |
| B3 | no binding (tested: 300 nM (highest analyte concentration)) |
| B4 | no binding (tested: 300 nM (highest analyte concentration)) |
| B5 | no binding (tested: 300 nM (highest analyte concentration)) |
| B6 | no binding (tested: 300 nM (highest analyte concentration)) |
| B7 | no binding (tested: 300 nM (highest analyte concentration)) |

biological target: SARS-CoV-2 spike protein (on pseudovirus / virus in the neutralisation assays) (SARS-CoV-2, UniProt P0DTC2 14-1273); experiment: cell-based or functional assay

| Binder | IC50 [µg/mL] plaque [µg/mL] | IC50 [µg/mL] pseudotyped lenti neutralization [µg/mL] |
| --- | --- | --- |
| B8 | < 3 | 0.62 |

biological target: SARS-Cov-2 Receptor Binding Domain (RBD) protein (SARS-CoV-2, UniProt P0DTC2 319-541); experiment: SPR (Carterra LSA), scFv captured via anti-V5, RBD as analyte, 1:1 fit

| Binder | Kd [nM] | koff [s⁻¹] | kon [M⁻¹ s⁻¹] |
| --- | --- | --- | --- |
| B1 | 40.7 | 0.0113 | 279000 |
| B9 | 49.5 | 0.00379 | 76600 |
| B2 | 4.4 | 0.00053 | 120000 |
| B10 | 12.5 | 0.00055 | 44000 |
| B8 | 2.8 | 0.00058 | 210000 |
| B3 | 1.4 | 0.00032 | 230000 |
| B4 | 7.1 | 0.00045 | 63000 |
| B11 | 30.4 | 0.00294 | 96900 |
| B5 | 0.72 | 5.7e-05 | 79000 |
| B6 | 2.5 | 0.0005 | 200000 |
| B7 | 19.7 | 0.0141 | 716000 |
| B12 | 10.9 | 0.012 | 1.1e+06 |
